The values below are quoted from earlier work in PMC11166923.

The target in this series is integrin β1D cytoplasmic tail (Homo sapiens) (UniProt P05556).
UniProt P05556, sequence (P05556 752-798): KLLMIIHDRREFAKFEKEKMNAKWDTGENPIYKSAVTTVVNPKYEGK

The term Kd denotes a measure of binding affinity in units of concentration. Consider Talin-2 (from UniProt Q9Y4G6), for which the Kd is 30 µM.
